# Source: the Human Domainome abundance scans (Beltran et al. 2025)
# ± gives the uncertainty stated by the source.
# B1: Zinc finger homeobox protein 4, residues 2086 to 2141; numbered along this chain, Q86UP3 (parent)
# chain: RPRTRITDDQLKILRAYFDINNSPSEEQIQEMAEKSGLSQKVIKHWFRNTLFKERQ
# Variants of: B1
# Assay: abundance fitness (aPCA) (normalised: wild type 0, dead -1); higher = more abundant; growth selection in yeast, the domain comes from the species named
# Conditions: Homo sapiens
row,Variant,abundance fitness
1,RPRTRITDDQLKILRAYFDICNSPSEEQIQEMAEKSGLSQKVIKHWFRNTLFKERQ [N21C],-0.09 ± 0.18
2,RPRTRITDDQLKILRAYFDIANSPSEEQIQEMAEKSGLSQKVIKHWFRNTLFKERQ [N21A],-0.031 ± 0.12
3,RPRTRITDDQLKILRAYFDIDNSPSEEQIQEMAEKSGLSQKVIKHWFRNTLFKERQ [N21D],-0.028 ± 0.13
4,RPRTRITDDQLKILRAYFCINNSPSEEQIQEMAEKSGLSQKVIKHWFRNTLFKERQ [D19C],-0.072 ± 0.11
5,RPRTRITDDQLKILRAYFSINNSPSEEQIQEMAEKSGLSQKVIKHWFRNTLFKERQ [D19S],0.142 ± 0.085
6,RPRTRITDDQLKILRAYFEINNSPSEEQIQEMAEKSGLSQKVIKHWFRNTLFKERQ [D19E],0.054 ± 0.092
7,RPRTRITDDQLKILRAYFAINNSPSEEQIQEMAEKSGLSQKVIKHWFRNTLFKERQ [D19A],0.011 ± 0.082
8,RPRTRITDDQLKILRAYFYINNSPSEEQIQEMAEKSGLSQKVIKHWFRNTLFKERQ [D19Y],-0.001 ± 0.15
9,RPRTRITDDQLKILRAYFNINNSPSEEQIQEMAEKSGLSQKVIKHWFRNTLFKERQ [D19N],0.07 ± 0.15
10,RPRTRITDDQLKILRAYFMINNSPSEEQIQEMAEKSGLSQKVIKHWFRNTLFKERQ [D19M],-0.033 ± 0.095
11,RPRTRITDDQLKILRAYFRINNSPSEEQIQEMAEKSGLSQKVIKHWFRNTLFKERQ [D19R],-0.009 ± 0.068
12,RPRTRITDDQLKILRAYFHINNSPSEEQIQEMAEKSGLSQKVIKHWFRNTLFKERQ [D19H],-0.333 ± 0.12
13,RPRTRITDDQLKILRAYFFINNSPSEEQIQEMAEKSGLSQKVIKHWFRNTLFKERQ [D19F],-0.196 ± 0.14
14,RPRTRITDDQLKILRAYFPINNSPSEEQIQEMAEKSGLSQKVIKHWFRNTLFKERQ [D19P],-0.149 ± 0.11
15,RPRTRITDDQLKILRAYFIINNSPSEEQIQEMAEKSGLSQKVIKHWFRNTLFKERQ [D19I],-0.061 ± 0.16
16,RPRTRITDDQLKILRAYFVINNSPSEEQIQEMAEKSGLSQKVIKHWFRNTLFKERQ [D19V],-0.071 ± 0.077
17,RPRTRITDDQLKILRAYFGINNSPSEEQIQEMAEKSGLSQKVIKHWFRNTLFKERQ [D19G],-0.089 ± 0.067
18,RPRTRITDDQLKILRAYFTINNSPSEEQIQEMAEKSGLSQKVIKHWFRNTLFKERQ [D19T],-0.104 ± 0.11
19,RPRTRITDDQLKILRAYFLINNSPSEEQIQEMAEKSGLSQKVIKHWFRNTLFKERQ [D19L],0.086 ± 0.079
20,RPRTRITDDQLKILRAYFKINNSPSEEQIQEMAEKSGLSQKVIKHWFRNTLFKERQ [D19K],0.082 ± 0.13
21,RPRTRITDDQLKILRAYFQINNSPSEEQIQEMAEKSGLSQKVIKHWFRNTLFKERQ [D19Q],0.029 ± 0.11
22,RPRTRITDDQLKILRAYQDINNSPSEEQIQEMAEKSGLSQKVIKHWFRNTLFKERQ [F18Q],0.011 ± 0.11
23,RPRTRITDDQLKILRAYYDINNSPSEEQIQEMAEKSGLSQKVIKHWFRNTLFKERQ [F18Y],0.033 ± 0.11
24,RPRTRITDDQLKILRAYTDINNSPSEEQIQEMAEKSGLSQKVIKHWFRNTLFKERQ [F18T],0.014 ± 0.1

row,Variant,abundance fitness
1,RPRTRITDDQLKILRAYSDINNSPSEEQIQEMAEKSGLSQKVIKHWFRNTLFKERQ [F18S],-0.142 ± 0.078
2,RPRTRITDDQLKILRAYNDINNSPSEEQIQEMAEKSGLSQKVIKHWFRNTLFKERQ [F18N],-0.268 ± 0.1
3,RPRTRITDDQLKILRAYPDINNSPSEEQIQEMAEKSGLSQKVIKHWFRNTLFKERQ [F18P],-0.224 ± 0.098
4,RPRTRITDDQLKILRAYRDINNSPSEEQIQEMAEKSGLSQKVIKHWFRNTLFKERQ [F18R],-0.018 ± 0.067
5,RPRTRITDDQLKILRAYWDINNSPSEEQIQEMAEKSGLSQKVIKHWFRNTLFKERQ [F18W],-0.142 ± 0.086
6,RPRTRITDDQLKILRAYFDFNNSPSEEQIQEMAEKSGLSQKVIKHWFRNTLFKERQ [I20F],-0.006 ± 0.09
7,RPRTRITDDQLKILRAYFDDNNSPSEEQIQEMAEKSGLSQKVIKHWFRNTLFKERQ [I20D],-0.276 ± 0.11
8,RPRTRITDDQLKILRAYFDHNNSPSEEQIQEMAEKSGLSQKVIKHWFRNTLFKERQ [I20H],-0.134 ± 0.12
9,RPRTRITDDQLKILRAYFDWNNSPSEEQIQEMAEKSGLSQKVIKHWFRNTLFKERQ [I20W],-0.273 ± 0.09
10,RPRTRITDDQLKILRAYFDTNNSPSEEQIQEMAEKSGLSQKVIKHWFRNTLFKERQ [I20T],0.077 ± 0.12
11,RPRTRITDDQLKILRAYFDPNNSPSEEQIQEMAEKSGLSQKVIKHWFRNTLFKERQ [I20P],0.022 ± 0.11
12,RPRTRITDDQLKILRAYFDMNNSPSEEQIQEMAEKSGLSQKVIKHWFRNTLFKERQ [I20M],-0.007 ± 0.13
13,RPRTRITDDQLKILRAYFDNNNSPSEEQIQEMAEKSGLSQKVIKHWFRNTLFKERQ [I20N],0.03 ± 0.11
14,RPRTRITDDQLKILRAYFDGNNSPSEEQIQEMAEKSGLSQKVIKHWFRNTLFKERQ [I20G],-0.03 ± 0.066
15,RPRTRITDDQLKILRAYFDVNNSPSEEQIQEMAEKSGLSQKVIKHWFRNTLFKERQ [I20V],0.008 ± 0.069
16,RPRTRITDDQLKILRAYFDYNNSPSEEQIQEMAEKSGLSQKVIKHWFRNTLFKERQ [I20Y],-0.113 ± 0.12
17,RPRTRITDDQLKILRAYFDKNNSPSEEQIQEMAEKSGLSQKVIKHWFRNTLFKERQ [I20K],0.153 ± 0.11
18,RPRTRITDDQLKILRAYFDANNSPSEEQIQEMAEKSGLSQKVIKHWFRNTLFKERQ [I20A],0.105 ± 0.079
19,RPRTRITDDQLKILRAYFDRNNSPSEEQIQEMAEKSGLSQKVIKHWFRNTLFKERQ [I20R],-0.007 ± 0.067
20,RPRTRITDDQLKILRAYFDCNNSPSEEQIQEMAEKSGLSQKVIKHWFRNTLFKERQ [I20C],-0.095 ± 0.084
21,RPRTRITDDQLKILRAYFDLNNSPSEEQIQEMAEKSGLSQKVIKHWFRNTLFKERQ [I20L],-0.051 ± 0.081
22,RPRTRITDDQLKILRAYFDQNNSPSEEQIQEMAEKSGLSQKVIKHWFRNTLFKERQ [I20Q],0.054 ± 0.1
23,RPRTRITDDQLKILRAYFDENNSPSEEQIQEMAEKSGLSQKVIKHWFRNTLFKERQ [I20E],0.015 ± 0.12
